For series [1], the target named is TaOGA53 (Trichoplax O-GlcNAcase) (Trichoplax adhaerens, UniProt A0A0D5X1V2).
In series [2] the target is T1, TaOGT (Trichoplax O-GlcNAc transferase) (Trichoplax adhaerens, UniProt A0A0D5X2K0).
T1 construct: TaOGT, start identified by RACE, wild type, GST tag cleaved
Put plainly: fluorescence UDP-detection OGT assay, […] UDP-GlcNAc. In kind it is biochemical.

Substrate in series [3]: CC(=O)N[C@H]1[C@@H](OP(=O)(O)OP(=O)(O)OC[C@H]2O[C@@H](n3ccc(=O)[nH]c3=O)[C@H](O)[C@@H]2O)O[C@H](CO)[C@@H](O)[C@@H]1O
Put plainly: steady-state kinetics (Km), fluorescence UDP-detection assay. The series is classed as biochemical, Trichoplax adhaerens. As for the experimental part: steady-state kinetics (Km), fluorescence UDP-detection assay on TaOGT (Trichoplax O-GlcNAc transferase) | The Km for UDP-GlcNAc was measured in the presence of excess peptide substrate

Substrate in the series “purified protein”: CC(=O)N[C@H]1[C@H](Oc2ccc3c(C)cc(=O)oc3c2)O[C@H](CO)[C@@H](O)[C@@H]1O
The experiment in a line: purified protein.

Peptide text beside a SMILES is read from it. * marks the point of attachment. Propyl(3-UDP) = O=c1ccn([C@@H]2O[C@H](COP(=O)(O)OP(=O)(O)OCCC*)[C@@H](O)[C@H]2O)c(=O)[nH]1

Consider `CCNC1=N[C@@H]2[C@@H](O)[C@H](O)[C@@H](CO)O[C@@H]2S1` [Thiamet G], for which the IC50 result in series [1] is “c, IC50 of Thiamet G and GlcNAcstatin C for TaOGA53”.

`CC(=O)N[C@H](C(=O)N[C@H](C(=O)N1CCC[C@H]1C(=O)N[C@H](C(=O)N[C@@H](COCCCOP(=O)(O)OP(=O)(O)OC[C@H]1O[C@@H](n2ccc(=O)[nH]c2=O)[C@H](O)[C@@H]1O)C(=O)N[C@H](C(=O)N[C@@H](C)C(N)=O)[C@@H](C)O)C(C)C)[C@@H](C)O)C(C)C` [Goblin 1] (Ac-VTPVS(Propyl(3-UDP))TA-NH2): the IC50 in series [2] was determined as 27 µM.

B1: TaOGT (Trichoplax O-GlcNAc transferase) (Trichoplax adhaerens) (protein)
chain: MVDQTNGIAEIAHREYQQGNYERAEHLAMEWWRHEQDNVGVLLLLSSIHFQTRKLDKSAHFCNMAIKSNPALSEAYSNLGNVFKERNQLKEALENYRYALRLRPDFIDGYINLASALVAAQDLEGAVKAYATALQYNPNLYCVRNDLGNLLKALGRLEEAKACYLKAIETQPNFAVAWSNLGCVFNSQGEIWLAIHHFEKAVTLDNGFLDAYINLGNVLKEARIFDRASTAYLRALNLSPNNPTVLGNLACVYYEQGLMDLAVDTYKRAIELQPNFPDAYCNLANALKELGKVTEAEECYNTALSLCPTHADSLNNLANIKREKGQIGEASKLYRKALEIFPEFAAAHSNLASVLQQQGKLQEALAHYKEAIRINPSFADAYSNMGNTLKEMQDVQGAIQCYTRAIQINPNFADAHSNLASIHKDSGSIPEAIANYRTALKLKPDFPDAFCNLAHCYQIICDWADYELRMKRLVSIVQDQLEKGRLPSVHPHHTMLYPLDGHTRKAISNRHGNLCLDRTATIHKPPYKFTPNIILPNGKLKIGYVSSDFGNHPTSHLMQSIPKLHDRSRVEVYCYSLTADDGTSFRKEISRGSDHFVDLSQVQCHGDAADRINADGIHILLNMNGYTKGARNEIFALRPAPIQMMWLGYPGTSGAAFMDYIITDKITSPMEYADHYSEKLAFLPNSFFIGDHRHMFAHLSVRATDNGRDRVINLSEGSAPDLDMKDIIEAQLREALSKIDNTSSHINTSTNLISNGTLGSNAVIPNGGPIINGNGDSVPNGPGVNVPSGMVLTTRAQYGLPSKAIIYCNFNQLYKIDPKILETWVRILKRVPNSILWLLRFPAAGEAMLKNTILKMGLPADRVVFTNVAPKEEHVRRGQLADICLDTPMCNGHTTGMDVLWAGVPMITMPKETLASRVASSQLTSLGVSELIAKDLTEYEDVAVKYGSDITRLRKLQDKIWQLRHKSTLFNTKTYCQNLEELYVKVWDRYSQGLEPDHIIY
notes: TaOGT, start identified by RACE, wild type, GST tag cleaved
With B1, the Km in series [3] was found to be 13 ± 2 µM.

B2: TaOGA53 (Trichoplax O-GlcNAcase) (Trichoplax adhaerens) (protein)
chain: MNHNFICGVIEGFYGLPWSFTDRLDLFERLKKWGLNTYIYGPKDDYKHRSAWRDLYTETEADLFRALIKNAIVNDVIFVYAISPGNDICYSNASDIAALKDKLDQVRSFGCEAFAVFFDDIYCTMSKKDKGNFASFADAHVYIANLIYEHLNRPAVFMFCPTEYCATRAVPSVENSPYLTVIGDKLHPDVKVLWTGPDVISPFISVDSILALQEILKRKPIIWDNIHANDYDHSRIFLGPYQDRPIELAKVLSGVITNPNCEYRMNYVPIRTFSLWCQSQDKDDVQYSAESALTCAVEEWVKEFSVPSQLNIDQENIAVTMKDGIAKKDMTVTTEHLLLLIDIFYLPHKYGRHSIHLINMARWLQVNSNMITSTKETDKATSPSVKMWFQVFNEFNSLCQGILLLYDYLTMCPNQAISRELNSYIINLKKIFHILSLHINSLGTEATKHSSDATDTVDSSDAVVYGGILGEVVKIIKEGSDGDLKSSQQQVTACAIEVSLKNSDANMGADIPTNATVIG
Regarding B2, in “purified protein”, the Km came to 78 ± 5 µM.

B3: TaOGA54 (Trichoplax O-GlcNAcase) (Trichoplax adhaerens) (protein)
chain: MTSDKFLSGVVEGFYGKPWSFEQRKTLFSNMAKWGLNTYMYGPKDDEKHRAAWKQAYSKREGDSLRALIRAAEESGILFIYAISPGVDITYSSNRDMKFLKDKLDQIRNFGCNSFAIFFDDIDTVMCLQDQEEFESFAAAQVEVTNEIYKYLGMPANFLFCPTEYCAARADPNVKESKYLVTVGTGLHSDIHIMWTGPKVVSNKISVESILELQTVLRRKPVIWDNIHANDYEQGRLNLGPYDCRPAELMESLNGIFTNPNCEFELNYVPIRTFSLWCQSKRTRFNYDVEKALEQSIREWTEEFCIPRLPDGYLLEADTSDTNVNEYMDDEMQSDSRPISPANSMETDKDELTVKDIRLLVELFYLPQKHGKTANDLLAQAKWLKSNFRIAALSRKPNDTSEGSNLDEHNTDYIAAKEWDKRFSKFRSICQIIHQFGDRLMTCRNRVLLYEVYNYVADLCGILYHLISRIHSLANPEKLEKRSDSEQSSFRYGGFVGDIHRLIVSTDEYEESTLKNSDAYVIRPFMPSDEETLYDLCLKSCIENSNGDEIYKREPRIIGDRDLGAYIYLHPEYIYVLEDDRDKICGYLCGALDSKQFYERYESEWLTQIRDRHPQPENDIASWTPEEIVANSFYNFTPPTDVSVLYLSHLEARFDSSVPEKVIKRIIRFILEQLKAKGSYGASMLIDSWRTNLRRIFTSMGFVDLQEYSWMSEQKCMIAIKLM
Turning to B3, the Km in the series “purified protein” amounted to 2000 ± 100 µM.

These data come from PMC4424335 (The Journal of Biological Chemistry, 2015).
